Experimental findings from patent publication US20060024667A1 (PRIMEX CLINICAL LABORATORIES, published 2006) are described below.

Positions of bridges follow the written chain, without caps; N, C: chain ends. No end group written: not given here.

The target of the test is T1, biotinylated Aβ42 (human, UniProt P05067 672-713, biotinylated (site not stated)).
T1 construct: domain: amyloid-beta peptide (Aβ42); Added in solution (PBS/1% BSA) to plates coated with the HCDR3-derived peptides; detected with avidin-peroxidase; also called Aβ42 (biotinylated)
T1 sequence (P05067 672-713 limits assumed): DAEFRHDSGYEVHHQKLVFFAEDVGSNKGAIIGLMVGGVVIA
Nature of the test: ELISA, peptide coated at 10 µg/ml, biotinylated Aβ42 in solution. (In an ELISA, binding on a coated surface is turned into a signal by an enzyme label.)

B1: scrambled cyclic peptide ScrC44 (peptide)
peptide: CADWRYRSVFGPVSVAC
modifications: disulfide 1-17 (inferred); not fully specified
notes: Negative control; also called Scr44; cyclic peptide with scrambled amino acids
Regarding B1, the binding result is recorded as “no binding”.
With IWGCSGKLICTTAVP (bridge 4-10 (inferred); also: cyclic via two Cys, bond not described, Negative control) [non-related cyclic peptide GM15] the entry was “no binding”.

B2: HCDR3-derived synthetic peptide N44 (peptide)
peptide: ASVRGWYVRSVFDPA
notes: HCDR3 of clone b4.4 with an alanine at each end, without cysteines; linear; also called linear N44; linear peptide N44
Regarding B2, the binding result is “no binding”.
